# Measurements taken from US20050048594.
# T1: peptide ARKRERAF(3-CF3)SFGHHA
# T1 chain: ARKRERAFSFGHHA
# B1: serine/threonine p21-activated kinase PAK4 (protein)
# chain: SPQREPQRVSHEQFRAALQLVVDPGDPRSYLDNFIKIGEGSTGIVCIATVRSSGKLVAVKKMDLRKQQRRELLFNEVVIMRDYQHENVVEMYNSYLVGDELWVVMEFLEGGALTDIVTHTRMNEEQIAAVCLAVLQALSVLHAQGVIHRDIKSDSILLTHDGRVKLSDFGFCAQVSKEVPRRKSLVGTPYWMAPELISRLPYGPEVDIWSLGIMVIEMVDGEPPYFNEPPLKAMKMIRDNLPPRLKNLHKVSPSLKGFLDRLLVRDPAQRATAAELLKHPFLAKAGPPASIVPLMRQNRTR
# Target: T1, peptide ARKRERAF(3-CF3)SFGHHA
protein,measurement,value
B1,phosphorylation of the peptide followed by 19F NMR (150 nM PAK4),the reaction in the presence of PAK4 results in the appearance of a 19F signal with a chemical shift similar to the shift of a phosphorylated peptide
same,speed of the enzymatic reaction relative to AKT1,The speed of the enzymatic reaction of PAK4 is only 1/22 of the speed of AKT1
